# US12297265B2, “Antibody and use thereof” (SICHUAN KELUN-BIOTECH BIOPHARMACEUTICAL CO., LTD., priority 2018, dated 2025)
# Target: T1, human Claudin18.2 (Homo sapiens, UniProt P56856)
# Test: FACS affinity of mouse anti-human Claudin18.2 antibodies to Ba/F3-Claudin 18.2 cells
# Type: binding
# Parameters: expressed in transfected cells; host or cells: Ba/F3 (BaF/3, DSMZ ACC300), hygromycin-selected monoclonal line
# Procedure: The affinity of the candidates to Claudin18.2 was measured using FACS. Single hybridoma clone 1E9.2, 2C6.9, 6B9.22, 9C8.1, 16A9.11, 19G10.14 and 19H11.6 were cultured in serum-free medium and mouse antibodies were purified from 100 mL supernatant by protein A chromatography (MabSelect SuRe, GE). Ba/F3-Claudin18.1 and Ba/F3-Claudin18.2 cells were incubated with the purified mouse antibodies at various concentrations on ice for 30 min and mouse IgG was used as negative control (Thermo Fisher, Cat: 31903), followed by washing with FACS buffer (PBS+2% FBS) twice. The cells were then incubated with a fluorescent goat-anti-mouse secondary antibody (Jackson ImmunoResearch, Cat: 115-605-071) on ice for 30 min before FACS analysis.
row,Max MFI (Max Mean Fluorescence Intensity),Molecule
1,3.501 ×10^6,"19G10.14: mouse anti-human Claudin18.2 monoclonal antibody; VH SEQ ID NO: 52, VL SEQ ID NO: 53 (antibody, V domains shown, heavy chain variable region sequence of mouse antibody 19G10.14; light chain variable region sequence of mouse antibody 19G10.14) VH: QVQLKESGPGLVAPSQSLSITCTVSGFSFTSYGVHWVRQPPGKGLEWLGVIWAGGSTDYNAALMSRLSIRKDNSKSQVFLKMNSLQIADTAMYYCARDGHGKVGFDVWGAGTTVTVSS VL: DIVMTQSPSSLSVSAGEKVTMNCKSSQSLLNSGNQKNYLAWYQQKPGQPPKLLIYGASTRESGVPDRFTGGGSGTDFTLTISSVQAEDLAIYYCQNDHFYPFTFGSGTKLEIK"
2,3.624 ×10^6,"6B9.22: mouse anti-human Claudin18.2 monoclonal antibody; VH SEQ ID NO: 50, VL SEQ ID NO: 51 (antibody, V domains shown, heavy chain variable region sequence of mouse antibody 6B9.22; light chain variable region sequence of mouse antibody 6B9.22) VH: QVQLQQSGAELVKPGASVKMSCKAFGYTFTSYPIEWMKQNHGKSLEWIGNFHPYNDDTKYNEKFKGKAKLTVEKSSSTVYLELSRLTSDDSAVYYCARTYYGNSFAYWGQGTLVTVSS VL: DIVMTQSPSSLTVTAGEKVTMSCKSSQSLLNSGNQKNYLTWYQQKPGQPPKLLIYWASSRDSGVPHRFTGSGSGTDFTLTISSVQAEDLAFYYCQNDYFYPFTFGAGTKLELK"
3,5.085 ×10^6,"1E9.2: mouse anti-human Claudin18.2 monoclonal antibody; VH SEQ ID NO: 1, VL SEQ ID NO: 2 (antibody, V domains shown, heavy chain variable region of mouse antibody 1E9.2; light chain variable region of mouse antibody 1E9.2) VH: EVMLVESGGGLVKPGGSLKLSCAASGFSFSNSAMSWVRQTPEKRLEGVATISSGDSYTYYPDSVKGRFTISRDNAKNSLYLQMSSLRSEDTAVYYCARQGYGNALDYWGQGTSVTVSS VL: DIVMTQSPSSLTVTAGEKVTMSCKSSQSLLNSGNQKNYLTWYQQKPGQPPKLLIYWSSTRESGVPDRFTGSGSGTDFTLTISSVQAEDLAVYYCQNDYYYPLTFGAGTKLELK"
4,4.969 ×10^6,"9C8.1: mouse anti-human Claudin18.2 monoclonal antibody; VH SEQ ID NO: 48, VL SEQ ID NO: 49 (antibody, V domains shown, heavy chain variable region sequence of mouse antibody 9C8.1; light chain variable region sequence of mouse antibody 9C8.1) VH: QVQLQQSGAELVRPGSSVKISCKASGYAFSNYWMNWVKQRPGQGLEWIGQIYPGDGDTNYNGKFKGKATLTTDKSSSTAYMQLSSLTSEDSAVYFCARLYYGNSFAYWGQGTLVTVSS VL: DIVMTQSPSSLTVTAGEKVTVSCKSSQSLLNSGNQKNYLTWYQQKPGQPPKLLIYWASTRESGVPDRFTGSGSGTDFTLTISSVQAADLAIYYCQNDYFYPFTFGGGTKLEIK"
5,6.008 ×10^6,"19H11.6: mouse anti-human Claudin18.2 monoclonal antibody; VH SEQ ID NO: 44, VL SEQ ID NO: 45 (antibody, V domains shown, heavy chain variable region sequence of mouse antibody 19H11.6; light chain variable region sequence of mouse antibody 19H11.6) VH: EVMLVESGGGLVKPGGSLKLSCAASGFSFSNSAMSWVRQTPEKRLEGVATISSGDSFTYYPDTVKGRFTISRDNAKNSLYLQMSRLRSEDTAVYYCARQGYGNALDYWGQGTSVTVSS VL: DIVMTQSPSSLTVTAGEKVTMTCKSSQSLLNSGNQKNYLTWYQQKPGQPPKLLIYWSSTRESGVPDRFTGSGSGTDFTLTISSVQAEDLAVYYCQNDYYYPLTFGAGTKLELK"
6,5.815 ×10^6,"16A9.11: mouse anti-human Claudin18.2 monoclonal antibody; VH SEQ ID NO: 46, VL SEQ ID NO: 47 (antibody, V domains shown, heavy chain variable region sequence of mouse antibody 16A9.11; light chain variable region sequence of mouse antibody 16A9.11) VH: EVMLVESGGGLVKPGGSLKLSCAASGFSFSNSAMSWVRQTPEKRLEGVATISSGDSYTYYPDSVKGRFTISRDTAKNSLYLQMSSLRSEDTAVYYCTRQGYGNAMDYWGQGTSVTVSS VL: DIVMTQSPSSLTVTAGEKVTMSCKSSQSLLNSGNQKNYLTWYQQKPGQPPKLLIYWSSTRESGVPDRFTGSGSGTDFTLTISSVQAEDLAVYYCQNDYYYPLTFGAGTKLELK"
7,6.111 ×10^6,"2C6.9: mouse anti-human Claudin18.2 monoclonal antibody; VH SEQ ID NO: 3, VL SEQ ID NO: 4 (antibody, V domains shown, heavy chain variable region of mouse antibody 2C6.9; light chain variable region of mouse antibody 2C6.9) VH: QVQLKESGPGLVAPSQSLSITCTVSGFSLTRYGVSWVRQPPGKGLEWLGVIWGDGNTNFHSFLKSRLSISKDSSKSQVFLKLNSLQTDDTATYYCARVNFGNALDYWGQGTSVTVSS VL: DIVMTQSPSSLTVTAGEEVTMSCKSSQSLLNSGNQKNYLTWYQQKPGQPPKLLIYWASTRDSGVPDRFTGSGSGTDFTLTISSVQSEDLAVYYCQNDFIFPLTFGAGTKLELK"

# Target: T1, human Claudin18.2
# Test: Affinity of chimeric and humanized antibodies to Ba/F3-Claudin 18.2 cells (IntelliCyt)
# Type: binding
# Parameters: expressed in transfected cells; host or cells: Ba/F3 (BaF/3, DSMZ ACC300), hygromycin-selected monoclonal line
# Text: In order to evaluate the anti-Claudin18.2 humanized antibodies, codon optimized cDNAs of the heavy chains and the light chains of the candidate humanized antibodies from Example 6 were synthesized and ligated into pcDNA3.4 (by Nanjing Genscript Biotech Corporation). Expi293F cells (purchased from Thermo Incorporation) were co-transfected with pcDNA3.4 coding the heavy chain and light chain of each antibody. The antibodies were purified from the supernatant using protein A (MabSelect SuRe, GE). The affinity of the humanized antibodies to Claudin18.2 was determined using Ba/F3-Claudin18.2 cells which over-expressed human Claudin18.2. Ba/F3-Claudin18.2 cells (60000 in 10 ul buffer) were incubated with purified humanized antibodies on ice for 30 min, followed by washing with buffer (PBS+2% FBS) twice and addition of Alexa647-labeled goat-anti-human IgG Fc antibody (1:500 dilution). The cells were incubated on ice for another 30 min and analyzed by IntelliCyt.
row,Max MFI,Molecule
1,11.28 ×10^6,"1E9.2-hz41: humanized antibody of 1E9.2; VH SEQ ID NO: 32, VL SEQ ID NO: 33 (antibody, V domains shown, heavy chain variable region of humanized antibody 1E9.2hz41; light chain variable region of humanized antibody 1E9.2hz11/1E9.2hz21/1E9.2hz31/1E9.2hz41) VH: EVQLVESGGGLVKPGGSLRLSCAASGFSFSNSAMSWVRQAPGKGLEGVATISSGDSYTYYPDSVKGRFTISRDNAKNSLYLQMNSLRAEDTAVYYCARQGYGNALDYWGQGTLVTVSS VL: DIVMTQSPDSLAVSLGERATINCKSSQSLLNSGNQKNYLTWYQQKPGQPPKLLIYWSSTRESGVPDRFSGSGSGTDFTLTISSLQAEDFAVYYCQNDYYYPLTFGGGTKVEIK"
2,10.64 ×10^6,"1E9.2-hz31: humanized antibody of 1E9.2; VH SEQ ID NO: 31, VL SEQ ID NO: 33 (antibody, V domains shown, heavy chain variable region of humanized antibody 1E9.2hz31; light chain variable region of humanized antibody 1E9.2hz11/1E9.2hz21/1E9.2hz31/1E9.2hz41) VH: EVQLVESGGGLVKPGGSLRLSCAASGFSFSNSAMSWVRQAPGKGLEGVATISSGDSYTYYADSVKGRFTISRDNAKNSLYLQMNSLRAEDTAVYYCARQGYGNALDYWGQGTLVTVSS VL: DIVMTQSPDSLAVSLGERATINCKSSQSLLNSGNQKNYLTWYQQKPGQPPKLLIYWSSTRESGVPDRFSGSGSGTDFTLTISSLQAEDFAVYYCQNDYYYPLTFGGGTKVEIK"
3,14.56 ×10^6,"1E9.2-hz21: humanized antibody of 1E9.2; VH SEQ ID NO: 30, VL SEQ ID NO: 33 (antibody, V domains shown, heavy chain variable region of humanized antibody 1E9.2hz21; light chain variable region of humanized antibody 1E9.2hz11/1E9.2hz21/1E9.2hz31/1E9.2hz41) VH: EVQLVESGGGLVKPGGSLRLSCAASGFSFSNSAMSWVRQAPGKGLEGVSTISSGDSYTYYADSVKGRFTISRDNAKNSLYLQMNSLRAEDTAVYYCARQGYGNALDYWGQGTLVTVSS VL: DIVMTQSPDSLAVSLGERATINCKSSQSLLNSGNQKNYLTWYQQKPGQPPKLLIYWSSTRESGVPDRFSGSGSGTDFTLTISSLQAEDFAVYYCQNDYYYPLTFGGGTKVEIK"
